In this experiment the target is NRLLLTG peptide. The experiment can be described thus: ELISA; 150 ng NRLLLTG peptide coated on the plate in 0.05 M sodium carbonate pH 9.6; HSP70 protein added in a dose-dependent manner; detected with anti-HSP70 antibody, TMB, 450 nm. Background: In an ELISA, binding on a coated surface is turned into a signal by an enzyme label.

The results in this text go back to publication PMC6802635.

As to “purified HSP70 S385D/S400D double phospho-mimetic mutant (from UniProt P0DMV8 1-641) (natural protein)”, the fold affinity relative to WT HSP70 worked out at 1.5 fold.
